From patent US20200270325A1 (Merck Sharp & Dohme, published 2020)
Numbered stars: 1 amine (or outer) side, 2 acyl side, 3 side chain; on linkers, the order of the positions; unused ones are H or OH. Square brackets hold non-standard residues; d marks the D form. Side chains are listed from the residue outwards. Ends that are not written are not given here. * marks the point of attachment. C18 diacid = O=C(O)CCCCCCCCCCCCCCCCC(=O)*; C16 diacid = O=C(O)CCCCCCCCCCCCCCC(=O)*; γGlu = O=C(O)[C@H](CCC(=O)[*:2])N[*:1]; Met(O2) = CS(=O)(=O)CC[C@H](N)C(=O)O; αMeD = C[C@](N)(CC(=O)O)C(=O)O; AEEA = NCCOCCOCC(=O)O; Aib = CC(C)(N)C(=O)O

B1: TP626 (peptide)
peptide: H[Aib]QGTFTSDYSKYLDARAAK([AEEA-γGlu-C18 diacid])DFVQWL[Met(O2)]DT-NH2
modifications: N-terminus assumed
SMILES: CC(C)C[C@H](NC(=O)[C@H](Cc1ccc(O)cc1)NC(=O)[C@H](CCCCN)NC(=O)[C@H](CO)NC(=O)[C@H](Cc1ccc(O)cc1)NC(=O)[C@H](CC(=O)O)NC(=O)[C@H](CO)NC(=O)[C@@H](NC(=O)[C@H](Cc1ccccc1)NC(=O)[C@@H](NC(=O)CNC(=O)[C@H](CCC(N)=O)NC(=O)C(C)(C)NC(=O)[C@@H](N)Cc1c[nH]cn1)[C@@H](C)O)[C@@H](C)O)C(=O)N[C@@H](CC(=O)O)C(=O)N[C@@H](C)C(=O)N[C@@H](CCCNC(=N)N)C(=O)N[C@@H](C)C(=O)N[C@@H](C)C(=O)N[C@@H](CCCCNC(=O)COCCOCCNC(=O)CC[C@H](NC(=O)CCCCCCCCCCCCCCCCC(=O)O)C(=O)O)C(=O)N[C@@H](CC(=O)O)C(=O)N[C@@H](Cc1ccccc1)C(=O)N[C@H](C(=O)N[C@@H](CCC(N)=O)C(=O)N[C@@H](Cc1c[nH]c2ccccc12)C(=O)N[C@@H](CC(C)C)C(=O)N[C@@H](CCS(C)(=O)=O)C(=O)N[C@@H](CC(=O)O)C(=O)N[C@H](C(N)=O)[C@@H](C)O)C(C)C
B2: TP627 (peptide)
peptide: H[Aib]QGTFTSDYSKYLDARAAK([AEEA-γGlu-C16 diacid])DFVQWL[Met(O2)][αMeD]T-NH2
modifications: N-terminus assumed
SMILES: CC(C)C[C@H](NC(=O)[C@H](Cc1ccc(O)cc1)NC(=O)[C@H](CCCCN)NC(=O)[C@H](CO)NC(=O)[C@H](Cc1ccc(O)cc1)NC(=O)[C@H](CC(=O)O)NC(=O)[C@H](CO)NC(=O)[C@@H](NC(=O)[C@H](Cc1ccccc1)NC(=O)[C@@H](NC(=O)CNC(=O)[C@H](CCC(N)=O)NC(=O)C(C)(C)NC(=O)[C@@H](N)Cc1c[nH]cn1)[C@@H](C)O)[C@@H](C)O)C(=O)N[C@@H](CC(=O)O)C(=O)N[C@@H](C)C(=O)N[C@@H](CCCNC(=N)N)C(=O)N[C@@H](C)C(=O)N[C@@H](C)C(=O)N[C@@H](CCCCNC(=O)COCCOCCNC(=O)CC[C@H](NC(=O)CCCCCCCCCCCCCCC(=O)O)C(=O)O)C(=O)N[C@@H](CC(=O)O)C(=O)N[C@@H](Cc1ccccc1)C(=O)N[C@H](C(=O)N[C@@H](CCC(N)=O)C(=O)N[C@@H](Cc1c[nH]c2ccccc12)C(=O)N[C@@H](CC(C)C)C(=O)N[C@@H](CCS(C)(=O)=O)C(=O)N[C@@](C)(CC(=O)O)C(=O)N[C@H](C(N)=O)[C@@H](C)O)C(C)C

Biological target: human Glucagon receptor (GCGR) (human, UniProt P47871 26-477)
Assay: cell-based or functional assay

human Glucagon receptor (GCGR), sequence (P47871 26-477): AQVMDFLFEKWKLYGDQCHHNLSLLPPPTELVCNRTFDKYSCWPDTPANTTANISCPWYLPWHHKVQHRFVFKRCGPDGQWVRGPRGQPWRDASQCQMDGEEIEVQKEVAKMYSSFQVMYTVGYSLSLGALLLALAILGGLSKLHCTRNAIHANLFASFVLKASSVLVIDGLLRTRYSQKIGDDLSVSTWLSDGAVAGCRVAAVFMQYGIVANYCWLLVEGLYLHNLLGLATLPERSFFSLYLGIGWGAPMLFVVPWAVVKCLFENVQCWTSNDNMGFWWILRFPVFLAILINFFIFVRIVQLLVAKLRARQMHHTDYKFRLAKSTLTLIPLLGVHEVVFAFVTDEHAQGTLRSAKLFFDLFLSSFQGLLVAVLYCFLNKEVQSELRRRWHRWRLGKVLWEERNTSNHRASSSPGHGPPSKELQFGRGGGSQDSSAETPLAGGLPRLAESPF

**Q.** B1 was tested. Which “GCGR EC50 human” value did it give?
**A.** 0.39 nM

**Q.** For B2, which “GCGR EC50 human” value is on record?
**A.** 0.14 nM

**Q.** H[Aib]QGTFTSDYSKYLDARAAK([AEEA-γGlu-C20‑OH])DFVQWL[Met(O2)][αMeD]T-NH2 [TP629] was tested. Which “GCGR EC50 human” value did it give?
**A.** 3.17 nM

Biological target: human GLP-1 receptor (GLP1R) (human, UniProt P43220 24-463)
Assay: cell-based or functional assay

**Q.** For B1, which “GLP1R EC50 human” value is on record?
**A.** 0.77 nM

**Q.** B2 was tested. Which “GLP1R EC50 human” value did it give?
**A.** 0.25 nM

**Q.** How did the “GLP1R EC50 human” value turn out when H[Aib]QGTFTSDYSKYLDARAAK([AEEA-γGlu-C20‑OH])DFVQWL[Met(O2)][αMeD]T-NH2 [TP629] was run?
**A.** 2.23 nM
